Experimental findings from paper PMC4861493, “Functional Evolution in Orthologous Cell-encoded RNA-dependent RNA Polymerases*” (The Journal of Biological Chemistry, 2016) are described below.

The data set concerns the molecule itself. Kind of data set: crystal structure; QDE-1^Tte catalytic fragment apoenzyme, crystals grown at 30 °C in 100 mM Tris-HCl pH 8.0, 75 mM NaCl, 10% PEG 10,000, 5 mM MgCl2, 6 mM spermine; 3.19 Å; two non-crystallographic dimers (A/B, C/D) in the asymmetric unit.

B1: QDE-1^Tte catalytic fragment (RNA-dependent RNA polymerase QDE-1 of Thielavia terrestris) (enzyme)
chain: EVYARLQNIWPKFPRWLHAAPLALAWELTRICLHCKVDLEDPTLRYDPSWATSDMAALWRSLTQLDVFRGKSFPERPSAEAFAAALTGNFESRGNTVVLSASLEFNPSKTGPLFLLDMKPLRFDEGCRLTRRFGPDRFLEVLVPSPTALNAPSILKDGGAAQVIRWLTEKPHSLVGRQWQAFYTKDAGYRKPARELRLGPDAKATFKERVHFFAERGHDFRPAPLRTRAQLPPESPSRRRTEIRVSEMLDWLLQLEQNEYQPHLKLFSRIQLGLSKTFPTVTFEPNQIRHRTDDILSPAGKIMNDGIGRMSRSVARKIRDALGLSDIPSAIQGRMGSAKGMWLMDVADAGDDDWIETYPSQRKWKCDDADALHRTLEIRSVSTELKPAALNLQFLPVLEDRAKDKARMRRAIAARLMNDLKKQFDSQKAAVERPLQFRQWVNECTNSRSERVRHGQVPFLGGLPENKGEVLSFLLNSGFDRRQKYIQDLAFDLQKQRCEVLRTKLNIHVGRSAYMFMVVDFWGVLEENEVHVGFSSKFRDDVDDTTYMLLTDCDVLVARSPAHFPSDIQKVRAVFKPQLHALKDVIVFPAKGDIPLADKLSGGDYDGDMAWVCWDPDIVENFTNADMPKEPDLSAYLGKDKTTFGELVRDTGRTGAAARHEAVYDMINKSFQFAMQPNYLGICTNYKERVCYHNNSVSDGVALLLSTLVGKLVDQSKQGILFDAASWDRLRRERLGGRMSVEDPAYKGDVWAGAGEPRHIVDYLKFAVAKPTIDRELEELHKVMQASRRAGPDDDAAAHSWDPDLAVYFENFKALTAESRSLRAVLEALQNALGAVEHEWKVLMSKGSSSSLTYPEKVRQLHAKWCAIEPRAVGRAGSNRLDAKTAALLEQPFLADRGGAGTSYWALLRASTAFKAYYKTNPKFVWQMAGAQLAFIKAQMSSPGGGGGGGSDGMPLLVTPLMYAGLAPDGRFVKQYLARLECDGSQYPDDDLEGDGEDGGGGGGRGDDVD
notes: QDE-1 ortholog of Thielavia terrestris, catalytic fragment; synthetic ORF from Genscript cloned into pFB-LIC-Bse; the monomer used for crystallization has 1,034 residues including the His tag and the tobacco etch virus protease cleavage site; numbers count on: the catalytic fragment; A TEV protease cleavage site lies between the His tag and the fragment and was not cut in the crystallized …
In the case of B1, the “stoichiometry N” value is 2.
